Measurements: patent US20140087995A1 (published 2014)
Numbered stars: 1 amine (or outer) side, 2 acyl side, 3 side chain; on linkers, the order of the positions; unused ones are H or OH. Bridge positions count the residues as written; N and C are the ends. Side chains are listed from the residue outwards. Ends that are not written are not given here. * marks the point of attachment. C20 diacid = O=C(O)CCCCCCCCCCCCCCCCCCC(=O)*; γGlu = O=C(O)[C@H](CCC(=O)[*:2])N[*:1]; AEEA = NCCOCCOCC(=O)O

T1: human amylin receptor (amylin 3(a) receptor: human calcitonin receptor with RAMP-3) (human, UniProt P30988 25-474; O60896 24-148)
T1 sequence (looked up) 1: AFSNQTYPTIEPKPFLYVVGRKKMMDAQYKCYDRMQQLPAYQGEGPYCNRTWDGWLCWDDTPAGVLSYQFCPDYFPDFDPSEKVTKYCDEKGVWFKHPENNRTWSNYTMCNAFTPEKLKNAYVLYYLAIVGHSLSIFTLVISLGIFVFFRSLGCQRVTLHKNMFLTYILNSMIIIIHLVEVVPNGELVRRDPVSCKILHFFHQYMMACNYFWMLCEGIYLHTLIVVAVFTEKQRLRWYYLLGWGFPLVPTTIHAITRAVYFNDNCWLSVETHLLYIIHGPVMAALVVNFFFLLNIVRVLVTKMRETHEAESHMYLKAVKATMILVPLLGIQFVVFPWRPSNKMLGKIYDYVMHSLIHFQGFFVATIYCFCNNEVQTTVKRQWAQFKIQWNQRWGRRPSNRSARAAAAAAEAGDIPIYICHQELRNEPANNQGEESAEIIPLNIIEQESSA
T1 sequence (looked up) 2: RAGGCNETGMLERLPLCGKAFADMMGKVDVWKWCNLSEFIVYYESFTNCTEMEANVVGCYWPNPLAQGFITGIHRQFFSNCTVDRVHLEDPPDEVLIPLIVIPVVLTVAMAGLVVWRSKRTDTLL

T2: human calcitonin receptor (human, UniProt P30988 25-474)
T2 sequence (looked up): T1 sequence (looked up) 1

T3: human calcitonin receptor (human, UniProt P30988 25-474)
T3 construct: whole, on cells; membranes of stably transfected BHK cells (Assay VII); also called hCTR; hCT
T3 sequence (looked up): T1 sequence (looked up) 1

T4: human amylin receptor (amylin 3(a) receptor: human calcitonin receptor plus RAMP-3) (human, UniProt P30988 25-474; O60896 24-148, limits assumed)
T4 sequence (looked up) 1: T1 sequence (looked up) 1
T4 sequence (looked up) 2: T1 sequence (looked up) 2

T5: human calcitonin receptor (human, UniProt P30988 25-474)
T5 sequence (looked up): T1 sequence (looked up) 1

B1: N^α1-[(4S)-4-carboxy-4-(19-carboxynonadecanoylamino)butanoyl]-[Arg17,Pro21,Pro27,Lys35]-h-amylin (peptide)
peptide: KCNTATCATQRLANFLRHSSPNFGAIPSSTNVGSKTY
modifications: C20 diacid-gGlu on the alpha amino group of the N-terminal residue; disulfide bridge Cys2-Cys7; C-terminal amide
notes: also called compound 34
B2: N^α1-[(4S)-4-carboxy-4-(19-carboxynonadecanoylamino)butanoyl]-[Arg17,Pro21,Pro27,Pro31,Glu35]-h-amylin (peptide)
peptide: {C20 diacid-γGlu}-KCNTATCATQRLANFLRHSSPNFGAIPSSTPVGSETY-NH2
modifications: disulfide 2-7
SMILES: CC[C@H](C)[C@H](NC(=O)[C@H](C)NC(=O)CNC(=O)[C@H](Cc1ccccc1)NC(=O)[C@H](CC(N)=O)NC(=O)[C@@H]1CCCN1C(=O)[C@H](CO)NC(=O)[C@H](CO)NC(=O)[C@H](Cc1c[nH]cn1)NC(=O)[C@H](CCCNC(=N)N)NC(=O)[C@H](CC(C)C)NC(=O)[C@H](Cc1ccccc1)NC(=O)[C@H](CC(N)=O)NC(=O)[C@H](C)NC(=O)[C@H](CC(C)C)NC(=O)[C@H](CCCNC(=N)N)NC(=O)[C@H](CCC(N)=O)NC(=O)[C@@H](NC(=O)[C@H](C)NC(=O)[C@@H]1CSSC[C@H](NC(=O)[C@H](CCCCN)NC(=O)CC[C@H](NC(=O)CCCCCCCCCCCCCCCCCCC(=O)O)C(=O)O)C(=O)N[C@@H](CC(N)=O)C(=O)N[C@@H]([C@@H](C)O)C(=O)N[C@@H](C)C(=O)N[C@@H]([C@@H](C)O)C(=O)N1)[C@@H](C)O)C(=O)N1CCC[C@H]1C(=O)N[C@@H](CO)C(=O)N[C@@H](CO)C(=O)N[C@H](C(=O)N1CCC[C@H]1C(=O)N[C@H](C(=O)NCC(=O)N[C@@H](CO)C(=O)N[C@@H](CCC(=O)O)C(=O)N[C@H](C(=O)N[C@@H](Cc1ccc(O)cc1)C(N)=O)[C@@H](C)O)C(C)C)[C@@H](C)O
notes: also called compound 28
B3: N^α1 N^α1-[(4S)-4-carboxy-4-[[(4S)-4-carboxy-4-(19-carboxynonadecanoylamino)butanoyl]amino]butanoyl]-[Glu14,Arg17,Pro21,Pro27]-h-amylin (peptide)
peptide: {C20 diacid-γGlu-γGlu}-KCNTATCATQRLAEFLRHSSPNFGAIPSSTNVGSNTY-NH2
modifications: disulfide 2-7 (inferred)
notes: analogue of human amylin; the name is printed with N^α1 twice; also called compound 15
B4: N^ε-[2-[2-[2-[[(4S)-4-carboxy-4-(19-carboxynonadecanoylamino)butanoyl]amino]ethoxy]ethoxy]acetyl]Lys[Arg1,Arg17,Pro21,Pro27,His35]-h-amylin (peptide)
peptide: K([AEEA-γGlu-C20 diacid])RCNTATCATQRLANFLRHSSPNFGAIPSSTNVGSHTY-NH2
modifications: disulfide 3-8; N-terminus assumed
SMILES: CC[C@H](C)[C@H](NC(=O)[C@H](C)NC(=O)CNC(=O)[C@H](Cc1ccccc1)NC(=O)[C@H](CC(N)=O)NC(=O)[C@@H]1CCCN1C(=O)[C@H](CO)NC(=O)[C@H](CO)NC(=O)[C@H](Cc1c[nH]cn1)NC(=O)[C@H](CCCNC(=N)N)NC(=O)[C@H](CC(C)C)NC(=O)[C@H](Cc1ccccc1)NC(=O)[C@H](CC(N)=O)NC(=O)[C@H](C)NC(=O)[C@H](CC(C)C)NC(=O)[C@H](CCCNC(=N)N)NC(=O)[C@H](CCC(N)=O)NC(=O)[C@@H](NC(=O)[C@H](C)NC(=O)[C@@H]1CSSC[C@H](NC(=O)[C@H](CCCNC(=N)N)NC(=O)[C@@H](N)CCCCNC(=O)COCCOCCNC(=O)CC[C@H](NC(=O)CCCCCCCCCCCCCCCCCCC(=O)O)C(=O)O)C(=O)N[C@@H](CC(N)=O)C(=O)N[C@@H]([C@@H](C)O)C(=O)N[C@@H](C)C(=O)N[C@@H]([C@@H](C)O)C(=O)N1)[C@@H](C)O)C(=O)N1CCC[C@H]1C(=O)N[C@@H](CO)C(=O)N[C@@H](CO)C(=O)N[C@H](C(=O)N[C@@H](CC(N)=O)C(=O)N[C@H](C(=O)NCC(=O)N[C@@H](CO)C(=O)N[C@@H](Cc1c[nH]cn1)C(=O)N[C@H](C(=O)N[C@@H](Cc1ccc(O)cc1)C(N)=O)[C@@H](C)O)C(C)C)[C@@H](C)O
notes: Synthetic acylated analogue of human amylin, extended by Lys at the N-terminus; also called compound 45
B5: N^ε1-[(4S)-4-carboxy-4-(19-carboxynonadecanoylamino)butanoyl]-[Arg17,Pro21,Pro27]-h-amylin (peptide)
peptide: K([γGlu-C20 diacid])CNTATCATQRLANFLRHSSPNFGAIPSSTNVGSNTY-NH2
modifications: disulfide 2-7; N-terminus assumed
SMILES: CC[C@H](C)[C@H](NC(=O)[C@H](C)NC(=O)CNC(=O)[C@H](Cc1ccccc1)NC(=O)[C@H](CC(N)=O)NC(=O)[C@@H]1CCCN1C(=O)[C@H](CO)NC(=O)[C@H](CO)NC(=O)[C@H](Cc1c[nH]cn1)NC(=O)[C@H](CCCNC(=N)N)NC(=O)[C@H](CC(C)C)NC(=O)[C@H](Cc1ccccc1)NC(=O)[C@H](CC(N)=O)NC(=O)[C@H](C)NC(=O)[C@H](CC(C)C)NC(=O)[C@H](CCCNC(=N)N)NC(=O)[C@H](CCC(N)=O)NC(=O)[C@@H](NC(=O)[C@H](C)NC(=O)[C@@H]1CSSC[C@H](NC(=O)[C@@H](N)CCCCNC(=O)CC[C@H](NC(=O)CCCCCCCCCCCCCCCCCCC(=O)O)C(=O)O)C(=O)N[C@@H](CC(N)=O)C(=O)N[C@@H]([C@@H](C)O)C(=O)N[C@@H](C)C(=O)N[C@@H]([C@@H](C)O)C(=O)N1)[C@@H](C)O)C(=O)N1CCC[C@H]1C(=O)N[C@@H](CO)C(=O)N[C@@H](CO)C(=O)N[C@H](C(=O)N[C@@H](CC(N)=O)C(=O)N[C@H](C(=O)NCC(=O)N[C@@H](CO)C(=O)N[C@@H](CC(N)=O)C(=O)N[C@H](C(=O)N[C@@H](Cc1ccc(O)cc1)C(N)=O)[C@@H](C)O)C(C)C)[C@@H](C)O
notes: Synthetic acylated analogue of human amylin; also called compound 48

The binders below were run against T1, human amylin receptor (amylin 3(a) …) (assay: cell-based or functional assay).

B1 and B2 are within 1.5-fold of each other in “hAmylin-R funct. EC50” value: 0.313 nM for the first, 0.22 nM for the second.

What follows are binders tested against T2, human calcitonin receptor (assay: cell-based or functional assay).

Compared with B1, B2 is higher in “Ratio hCT/hAmylin funct.” value: 8.4 for the first, 9.2 for the second.

B1 and B2 are within 1.5-fold of each other in “hCTR funct. EC50” value: 2.62 nM for the first, 2.03 nM for the second.

Each binder was assayed against T3, human calcitonin receptor (assay: IC50 on human calcitonin receptor divided by IC50 on human amylin receptor (SPA competition)).
Protocol: The resulting pellet was resuspended, homogenized and centrifuged (20.000 rpm, 15 min) in a buffer containing 20 mM Na-HEPES and 0.1 mM EDTA (pH 7.4, buffer 2). The resulting pellet was resuspended in buffer 2 and protein concentration was measured (BCA protein Assay, Pierce). The homogenate was kept cold during the whole procedure. The membranes were kept at −80° C. until use. The assay was performed in a 384 well Optiplate (PerkinElmer) in a total volume of 40 ul. Membranes were mixed with SPA beads. Final concentration of membranes 35 ng/μL final and SPA beads was 0.05 mg/well. Test-compounds were dissolved in DMSO and further diluted in assay buffer (50 mM Hepes, pH 7.4, 1 mM CaCl2, 5 mM MgCl₂, 0.1% OA and 0.02% Tween20). […] The final mixture was incubated with shaking at 400 rpm for 120 min at 25° C. prior to centrifugation (1500 rpm, 10 min). Samples were analyzed on TopCounter™ (Packard). The IC₅₀ was calculated using (one site binding competition analysis) GraphPad Prism5 as a measure of receptor affinity.
Membranes were prepared in the following way; the cells were rinsed with PBS and incubated with Versene for approximately 5 min before harvesting. The cells were flushed with PBS and the cell-suspension was centrifuged for 5 min at 1000 rpm. Cells were homogenized (Ultrathurrax) in a buffer containing 20 mM Na-HEPES and 10 mM EDTA (pH 7.4) and centrifuged at 20.000 rpm for 15 min. The resulting pellet was resuspended, homogenized and centrifuged (20.000 rpm, 15 min) in a buffer containing 20 mM Na-HEPES and 0.1 mM EDTA (pH 7.4, buffer 2). The resulting pellet was resuspended in buffer 2 and protein concentration was measured (BCA protein Assay, Pierce). The homogenate was kept cold during the whole procedure. The membranes were kept at −80° C. until use. Assay was performed in a 384 well Optiplate (PerkinElmer) in a total volume of 40 ul. Membranes were mixed with SPA beads.

For B3, the “Ratio hCT/hAmylin binding” value was 26.

Each binder was assayed against T4, human amylin receptor (amylin 3(a) …) (assay: cell-based or functional assay).

B4 and B5 are the same in “Ratio hCT/hAmylin funct.” value: 17 ratio for the first, 17 ratio for the second.

Compared with B4, B5 is 5.1-fold lower in “hAmylin-R funct. EC50” value: 0.594 nM for the first, 0.116 nM for the second.

What follows are binders tested against T5, human calcitonin receptor (assay: cell-based or functional assay).

First: B4
Second: B5
The “hCTR funct. EC50” value of the first is 5.1-fold higher: 10.1 nM for the first, 1.97 nM for the second.
